{"source": "patent US20250066499A1", "about": "(SUNSHINE GUOJIAN PHARMACEUTICAL SHANGHAI, published 2025)", "binders": {"B1": {"name": "48A11-HuV33 (antibody, human IgG4, V domains shown)", "VH": "QVQLVQSGAEVKKPGASVKVSCKASGYTFTSYWMHWVRQAPGQGLEWIGEINPSIGRTNYNEKFKSRVTLTRDTSTSTAYMELSSLRSEDTAVYYCARRVYGTMDYWGQGTLVTVSS", "VL": "DIQMTQSPSSLSASVGDRVTITCKASQDINSYLSWFQQKPGKSPKLLIYRANIWVDGVPSRFSGSGSGQDYTFTISSLQPEDIATYYCLQYDELYTFGQGTKVEIK", "notes": "Humanized"}}, "key": {"[1]": {"molecular_target": "T1, CD73-ND-his (human, UniProt P21589 27-317)", "T1 construct": "Biotinylated and captured on streptavidin in the ELISA", "T1 sequence": "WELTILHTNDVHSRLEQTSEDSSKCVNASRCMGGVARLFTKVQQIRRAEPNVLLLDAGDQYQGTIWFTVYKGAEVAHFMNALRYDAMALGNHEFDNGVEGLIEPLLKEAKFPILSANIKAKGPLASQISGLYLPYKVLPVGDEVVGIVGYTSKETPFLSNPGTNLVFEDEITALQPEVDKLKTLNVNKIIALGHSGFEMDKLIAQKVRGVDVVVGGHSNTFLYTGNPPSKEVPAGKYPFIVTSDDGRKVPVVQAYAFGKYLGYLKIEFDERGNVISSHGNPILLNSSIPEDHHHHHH", "experiment": "ELISA; decline multiple of Top against CD73-ND", "protocol": "(§1) The ELISA plates were coated with SA protein diluted to 1.5 μg/mL in coating buffer (50 mM carbonate coating buffer, pH 9.6) and incubated overnight at 4° C. The supernatant was discarded, and the plates were washed three times with PBST. Then, 5% skimmed milk powder prepared with PBS was added for blocking and the plates were incubated for 2 h at 37° C. After washing the plates once with PBST, CD73-biotin protein (prepared by biotinylating CD73-His protein according to the EZ-Link NHS-Biotin Reagent instructions) was diluted to 0.5 μg/mL and added at 100 μL/well for incubation at room temperature for 1 h. The plates were washed three times with PBST, and the prepared murine-derived monoclonal antibodies against human CD73 were serially diluted with 1% BSA buffer prepared with PBST and added to the ELISA plates at 100 μl/well. The plates were incubated at 37° C. for 1 h. After washing the plates three times with PBST, HRP-labeled goat anti-mouse IgG secondary antibody was added and the plates were incubated for 30 min at 37° C. After washing the plates three times with PBST, the residual droplets were patted dry on absorbent paper as much as possible. Then, 100 μl of TMB color developing solution was added to each well, and the plates were incubated in the dark at room temperature for 5 min for color development. Subsequently, 50 μl of 2M H₂SO₄ stop solution was added to each well to terminate the substrate reaction. The OD values were read at 450 nm using a multimode microplate reader to analyze the binding ability of the tested antibodies to the target antigen human CD73-His.\n(§2) Referring to the experimental method in Example 3, the affinity of 48A11-HuV33 for various mutant proteins of CD73-ND was determined. The SA protein was diluted to 1 μg/mL for coating the ELISA plates, and the biotinylated CD73 protein (CD73-biotin) was used at a concentration of 0.1 μg/mL."}, "[2]": {"molecular_target": "T2, CD73-ND-V144A (human, UniProt P21589 27-317)", "T2 construct": "Alanine mutant of CD73-ND", "T2 sequence": "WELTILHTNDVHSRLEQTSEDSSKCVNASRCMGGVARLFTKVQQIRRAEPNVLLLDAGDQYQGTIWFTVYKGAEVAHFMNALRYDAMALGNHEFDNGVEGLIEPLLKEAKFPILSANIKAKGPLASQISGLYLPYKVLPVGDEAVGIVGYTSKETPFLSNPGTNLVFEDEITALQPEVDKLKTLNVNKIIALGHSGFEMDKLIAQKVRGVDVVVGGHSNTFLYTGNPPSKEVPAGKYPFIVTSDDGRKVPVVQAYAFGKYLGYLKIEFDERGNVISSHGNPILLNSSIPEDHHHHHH", "experiment": "ELISA; decline multiple of Top against CD73-ND", "protocol": "as §1, §2"}, "[3]": {"molecular_target": "T3, CD73-ND-K180A (human, UniProt P21589 27-317)", "T3 construct": "Alanine mutant of CD73-ND", "T3 sequence": "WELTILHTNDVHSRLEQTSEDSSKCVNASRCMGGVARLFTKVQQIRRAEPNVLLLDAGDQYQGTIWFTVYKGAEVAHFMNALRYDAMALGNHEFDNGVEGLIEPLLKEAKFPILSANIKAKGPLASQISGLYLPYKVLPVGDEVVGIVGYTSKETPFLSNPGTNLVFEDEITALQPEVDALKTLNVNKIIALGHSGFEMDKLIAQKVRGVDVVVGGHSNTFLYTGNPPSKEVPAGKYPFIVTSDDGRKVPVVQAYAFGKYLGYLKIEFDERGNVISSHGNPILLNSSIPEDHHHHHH", "experiment": "ELISA; decline multiple of Top against CD73-ND", "protocol": "as §1, §2"}, "[4]": {"molecular_target": "T4, CD73-ND-N185A (human, UniProt P21589 27-317)", "T4 construct": "Alanine mutant of CD73-ND", "T4 sequence": "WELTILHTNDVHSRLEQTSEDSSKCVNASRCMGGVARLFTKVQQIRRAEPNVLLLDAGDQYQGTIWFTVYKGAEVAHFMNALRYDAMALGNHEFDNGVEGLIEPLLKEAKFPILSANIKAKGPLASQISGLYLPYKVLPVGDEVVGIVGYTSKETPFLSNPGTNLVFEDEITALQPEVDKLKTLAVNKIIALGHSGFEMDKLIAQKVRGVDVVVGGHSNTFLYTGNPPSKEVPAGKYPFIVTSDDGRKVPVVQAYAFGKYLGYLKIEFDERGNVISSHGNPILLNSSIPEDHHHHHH", "experiment": "ELISA; decline multiple of Top against CD73-ND", "protocol": "as §1, §2"}, "[5]": {"molecular_target": "T5, CD73-ND-Y135A (human, UniProt P21589 27-317)", "T5 construct": "Alanine mutant of CD73-ND", "T5 sequence": "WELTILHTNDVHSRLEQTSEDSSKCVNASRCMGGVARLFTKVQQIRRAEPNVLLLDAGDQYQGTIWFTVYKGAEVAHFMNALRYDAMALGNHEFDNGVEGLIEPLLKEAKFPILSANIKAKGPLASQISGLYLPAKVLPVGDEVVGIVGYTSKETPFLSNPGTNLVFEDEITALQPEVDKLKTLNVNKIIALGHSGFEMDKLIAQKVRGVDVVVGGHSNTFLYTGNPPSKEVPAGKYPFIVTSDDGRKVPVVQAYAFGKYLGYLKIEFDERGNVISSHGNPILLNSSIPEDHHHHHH", "experiment": "ELISA; decline multiple of EC50 against CD73-ND", "protocol": "as §1, §2"}, "[6]": {"molecular_target": "T6, CD73-ND-V137A (human, UniProt P21589 27-317)", "T6 construct": "Alanine mutant of CD73-ND", "T6 sequence": "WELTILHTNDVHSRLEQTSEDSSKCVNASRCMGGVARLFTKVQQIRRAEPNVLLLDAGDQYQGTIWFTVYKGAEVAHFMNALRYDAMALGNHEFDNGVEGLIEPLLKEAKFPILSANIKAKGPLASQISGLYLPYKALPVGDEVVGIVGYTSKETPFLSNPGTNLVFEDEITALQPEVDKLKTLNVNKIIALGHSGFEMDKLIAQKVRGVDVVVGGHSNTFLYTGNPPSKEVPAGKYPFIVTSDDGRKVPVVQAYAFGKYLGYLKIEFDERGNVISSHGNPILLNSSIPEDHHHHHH", "experiment": "ELISA; decline multiple of EC50 against CD73-ND", "protocol": "as §1, §2"}}}
{"binder": "B1", "values": [{"measurement": "Ratio(Top)", "setting": "[1]", "result": 1, "unit": "fold"}, {"measurement": "Ratio(Top)", "setting": "[2]", "result": 1.2, "unit": "fold"}, {"measurement": "Ratio(Top)", "setting": "[3]", "result": 1.1, "unit": "fold"}, {"measurement": "Ratio(Top)", "setting": "[4]", "result": 1, "unit": "fold"}, {"measurement": "Ratio(EC50)", "setting": "[5]", "result": 1.1, "unit": "fold"}, {"measurement": "Ratio(EC50)", "setting": "[6]", "result": 5.9, "unit": "fold"}]}
